Measured values published in the supplement of paper PMC10065799, “High-throughput profiling of sequence recognition by tyrosine kinases and SH2 domains using bacterial peptide display” (eLife, 2023).
Values belong to the sequence of their own block, whether it stands above or below them.

Key:
[1] = biological target: MERTK (UniProt Q12866); assay: phosphorylation enrichment, bacterial display (enrichment ratio); higher = better substrate or ligand; peptides without Tyr show the background
[2] = biological target: Fes (UniProt P07332); assay: as above
[3] = biological target: EPHB1 (UniProt P54762); assay: as above
[4] = tested on: Fer (mouse); assay: as above
[5] = biological target: Fyn (UniProt P06241); assay: as above
[6] = biological target: FGFR3 (UniProt P22607); assay: as above
[7] = biological target: Jak2 (UniProt O60674); assay: as above
[8] = tested on: c-Abl (mouse); assay: as above
[9] = biological target: FGFR1 (UniProt P11362); assay: as above
[10] = biological target: EPHB2 (UniProt P29323); assay: as above
[11] = tested on: AncSZ; assay: as above
[12] = tested on: c-Src; assay: as above
[13] = biological target: Hck (UniProt P08631); assay: as above
[14] = biological target: Grb2 SH2 (UniProt P62993); assay: SH2 binding enrichment of the phosphorylated peptide, bacterial display (enrichment ratio); higher = better substrate or ligand; peptides without Tyr show the background
[15] = biological target: SHP2-C SH2; assay: as above
[16] = biological target: c-Src SH2; assay: as above
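Throughout, for SH2 binding enrichment of the phosphorylated peptide, bacterial display: peptide library displayed on the E. coli surface as eCPX fusions, selected cells deep-sequenced, score is each peptide's frequency after selection divided by its frequency in the input.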
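Throughout, for phosphorylation enrichment, bacterial display: 11-residue human phosphosite peptides and single-mutation variants displayed on the E. coli surface, counted by deep sequencing, each peptide's frequency after selection divided by its frequency in the unselected input library; frequency after pTyr selection over input frequency; kinase dosed for 20-30% of maximal phosphorylation in three min.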

Sequence of FGFR1 (P11362 whole entry, looked up): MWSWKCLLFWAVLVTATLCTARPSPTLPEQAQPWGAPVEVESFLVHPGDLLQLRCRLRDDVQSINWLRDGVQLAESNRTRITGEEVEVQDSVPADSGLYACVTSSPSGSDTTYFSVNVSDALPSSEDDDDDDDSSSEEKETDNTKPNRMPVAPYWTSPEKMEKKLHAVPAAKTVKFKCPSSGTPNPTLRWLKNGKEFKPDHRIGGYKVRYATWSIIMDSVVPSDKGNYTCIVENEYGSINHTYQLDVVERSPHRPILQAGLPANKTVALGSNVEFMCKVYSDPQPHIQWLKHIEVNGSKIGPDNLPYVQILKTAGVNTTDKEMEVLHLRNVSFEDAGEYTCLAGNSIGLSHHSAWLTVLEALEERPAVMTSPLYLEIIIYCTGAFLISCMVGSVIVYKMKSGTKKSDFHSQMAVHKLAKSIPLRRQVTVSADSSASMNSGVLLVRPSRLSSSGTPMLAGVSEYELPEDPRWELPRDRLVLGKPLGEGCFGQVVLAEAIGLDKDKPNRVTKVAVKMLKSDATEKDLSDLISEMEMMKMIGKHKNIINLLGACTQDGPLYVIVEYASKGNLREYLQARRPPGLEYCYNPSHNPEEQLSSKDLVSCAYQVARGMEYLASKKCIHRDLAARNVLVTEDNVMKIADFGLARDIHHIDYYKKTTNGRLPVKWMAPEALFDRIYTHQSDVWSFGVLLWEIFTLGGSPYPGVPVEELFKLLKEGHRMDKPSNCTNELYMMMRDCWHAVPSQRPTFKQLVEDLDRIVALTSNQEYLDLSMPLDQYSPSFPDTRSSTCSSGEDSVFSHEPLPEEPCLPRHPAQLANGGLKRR
Sequence of EPHB2 (P29323 whole entry, looked up): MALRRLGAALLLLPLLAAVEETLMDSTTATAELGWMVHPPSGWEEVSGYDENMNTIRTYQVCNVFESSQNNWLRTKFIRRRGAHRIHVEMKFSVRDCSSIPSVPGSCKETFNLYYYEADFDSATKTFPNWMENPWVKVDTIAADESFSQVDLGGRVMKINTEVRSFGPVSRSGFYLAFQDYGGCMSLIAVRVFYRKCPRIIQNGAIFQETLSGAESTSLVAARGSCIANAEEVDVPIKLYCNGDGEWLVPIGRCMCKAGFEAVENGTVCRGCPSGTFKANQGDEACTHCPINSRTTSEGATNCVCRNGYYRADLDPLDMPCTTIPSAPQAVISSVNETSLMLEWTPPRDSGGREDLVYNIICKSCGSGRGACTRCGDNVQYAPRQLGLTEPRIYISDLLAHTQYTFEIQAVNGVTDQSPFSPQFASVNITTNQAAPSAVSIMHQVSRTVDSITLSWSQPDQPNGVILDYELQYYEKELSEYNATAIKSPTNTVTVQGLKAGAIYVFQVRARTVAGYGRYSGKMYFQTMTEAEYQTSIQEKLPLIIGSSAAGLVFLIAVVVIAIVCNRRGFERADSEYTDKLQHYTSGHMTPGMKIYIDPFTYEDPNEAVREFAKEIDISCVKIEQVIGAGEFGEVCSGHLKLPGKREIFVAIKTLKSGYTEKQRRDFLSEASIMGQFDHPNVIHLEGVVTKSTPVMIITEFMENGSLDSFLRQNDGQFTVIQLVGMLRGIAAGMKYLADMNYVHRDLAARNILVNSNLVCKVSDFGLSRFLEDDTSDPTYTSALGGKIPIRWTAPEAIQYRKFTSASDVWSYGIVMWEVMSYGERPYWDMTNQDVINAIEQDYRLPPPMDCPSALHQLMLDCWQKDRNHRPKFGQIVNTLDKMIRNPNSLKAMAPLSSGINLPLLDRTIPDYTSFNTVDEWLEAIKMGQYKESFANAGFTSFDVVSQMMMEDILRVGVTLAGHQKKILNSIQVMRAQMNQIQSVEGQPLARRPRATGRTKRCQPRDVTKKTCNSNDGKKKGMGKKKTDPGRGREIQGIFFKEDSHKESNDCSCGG
Sequence of Fyn (P06241 whole entry, looked up): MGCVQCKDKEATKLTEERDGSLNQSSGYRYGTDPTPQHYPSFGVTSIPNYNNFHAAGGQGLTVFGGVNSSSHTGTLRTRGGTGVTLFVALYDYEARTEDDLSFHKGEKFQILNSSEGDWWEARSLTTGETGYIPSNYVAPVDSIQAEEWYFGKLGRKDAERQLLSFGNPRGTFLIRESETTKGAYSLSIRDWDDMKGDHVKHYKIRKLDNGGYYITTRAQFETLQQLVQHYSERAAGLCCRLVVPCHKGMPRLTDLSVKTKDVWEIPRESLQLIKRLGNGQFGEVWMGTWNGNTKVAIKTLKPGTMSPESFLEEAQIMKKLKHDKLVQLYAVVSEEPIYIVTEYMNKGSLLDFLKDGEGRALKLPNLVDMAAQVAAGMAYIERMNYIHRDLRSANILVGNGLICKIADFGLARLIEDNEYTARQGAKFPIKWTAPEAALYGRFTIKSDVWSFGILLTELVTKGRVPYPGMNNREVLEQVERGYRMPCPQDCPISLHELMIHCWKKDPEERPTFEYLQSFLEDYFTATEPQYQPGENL
Sequence of FGFR3 (P22607 whole entry, looked up): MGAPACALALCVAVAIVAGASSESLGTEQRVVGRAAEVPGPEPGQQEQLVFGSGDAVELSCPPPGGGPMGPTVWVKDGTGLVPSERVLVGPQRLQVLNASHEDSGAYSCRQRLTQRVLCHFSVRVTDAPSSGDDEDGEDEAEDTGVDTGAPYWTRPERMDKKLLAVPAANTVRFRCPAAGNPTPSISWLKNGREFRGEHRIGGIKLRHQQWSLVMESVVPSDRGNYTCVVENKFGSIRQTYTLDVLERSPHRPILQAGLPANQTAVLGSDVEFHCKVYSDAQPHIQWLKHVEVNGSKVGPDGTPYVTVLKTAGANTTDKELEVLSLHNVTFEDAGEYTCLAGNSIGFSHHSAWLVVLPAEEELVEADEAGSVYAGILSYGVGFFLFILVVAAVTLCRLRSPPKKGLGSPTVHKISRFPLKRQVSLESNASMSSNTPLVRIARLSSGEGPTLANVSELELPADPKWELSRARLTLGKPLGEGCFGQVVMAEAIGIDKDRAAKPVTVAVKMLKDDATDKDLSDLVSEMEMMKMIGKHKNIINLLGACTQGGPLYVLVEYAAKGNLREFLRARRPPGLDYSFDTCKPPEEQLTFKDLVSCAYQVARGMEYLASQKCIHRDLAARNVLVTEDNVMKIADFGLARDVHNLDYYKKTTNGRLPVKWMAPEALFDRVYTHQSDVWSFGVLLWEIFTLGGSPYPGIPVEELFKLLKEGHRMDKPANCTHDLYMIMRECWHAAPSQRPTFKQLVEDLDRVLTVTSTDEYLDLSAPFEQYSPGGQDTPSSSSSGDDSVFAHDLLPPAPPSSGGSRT
Sequence of MERTK (Q12866 whole entry, looked up): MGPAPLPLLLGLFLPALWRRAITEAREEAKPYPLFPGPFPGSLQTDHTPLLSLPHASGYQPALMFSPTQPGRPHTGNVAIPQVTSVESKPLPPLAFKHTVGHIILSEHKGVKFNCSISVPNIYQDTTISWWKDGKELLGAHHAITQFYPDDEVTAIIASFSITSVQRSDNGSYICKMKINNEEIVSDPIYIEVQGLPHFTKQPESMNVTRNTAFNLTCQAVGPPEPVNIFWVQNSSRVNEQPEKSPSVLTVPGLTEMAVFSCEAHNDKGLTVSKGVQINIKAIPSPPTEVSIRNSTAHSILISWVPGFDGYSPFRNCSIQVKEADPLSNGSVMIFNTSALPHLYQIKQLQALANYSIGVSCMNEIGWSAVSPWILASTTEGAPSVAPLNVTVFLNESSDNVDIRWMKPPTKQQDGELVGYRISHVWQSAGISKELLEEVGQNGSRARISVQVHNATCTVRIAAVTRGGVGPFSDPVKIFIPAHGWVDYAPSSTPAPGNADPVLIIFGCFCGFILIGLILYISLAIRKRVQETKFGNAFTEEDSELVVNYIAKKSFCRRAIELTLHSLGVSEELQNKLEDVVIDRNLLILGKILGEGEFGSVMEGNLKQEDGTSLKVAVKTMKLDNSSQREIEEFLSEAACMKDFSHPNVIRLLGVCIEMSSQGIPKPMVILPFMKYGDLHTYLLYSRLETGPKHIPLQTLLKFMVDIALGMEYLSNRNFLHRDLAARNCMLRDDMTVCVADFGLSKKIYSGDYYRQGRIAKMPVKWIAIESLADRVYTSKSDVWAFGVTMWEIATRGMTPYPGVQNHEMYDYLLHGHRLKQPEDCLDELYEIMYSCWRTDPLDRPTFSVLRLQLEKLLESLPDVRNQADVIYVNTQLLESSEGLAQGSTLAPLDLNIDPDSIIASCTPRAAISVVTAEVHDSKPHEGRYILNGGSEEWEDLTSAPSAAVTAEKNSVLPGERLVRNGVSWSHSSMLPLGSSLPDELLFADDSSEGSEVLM
Sequence of Fes (P07332 whole entry, looked up): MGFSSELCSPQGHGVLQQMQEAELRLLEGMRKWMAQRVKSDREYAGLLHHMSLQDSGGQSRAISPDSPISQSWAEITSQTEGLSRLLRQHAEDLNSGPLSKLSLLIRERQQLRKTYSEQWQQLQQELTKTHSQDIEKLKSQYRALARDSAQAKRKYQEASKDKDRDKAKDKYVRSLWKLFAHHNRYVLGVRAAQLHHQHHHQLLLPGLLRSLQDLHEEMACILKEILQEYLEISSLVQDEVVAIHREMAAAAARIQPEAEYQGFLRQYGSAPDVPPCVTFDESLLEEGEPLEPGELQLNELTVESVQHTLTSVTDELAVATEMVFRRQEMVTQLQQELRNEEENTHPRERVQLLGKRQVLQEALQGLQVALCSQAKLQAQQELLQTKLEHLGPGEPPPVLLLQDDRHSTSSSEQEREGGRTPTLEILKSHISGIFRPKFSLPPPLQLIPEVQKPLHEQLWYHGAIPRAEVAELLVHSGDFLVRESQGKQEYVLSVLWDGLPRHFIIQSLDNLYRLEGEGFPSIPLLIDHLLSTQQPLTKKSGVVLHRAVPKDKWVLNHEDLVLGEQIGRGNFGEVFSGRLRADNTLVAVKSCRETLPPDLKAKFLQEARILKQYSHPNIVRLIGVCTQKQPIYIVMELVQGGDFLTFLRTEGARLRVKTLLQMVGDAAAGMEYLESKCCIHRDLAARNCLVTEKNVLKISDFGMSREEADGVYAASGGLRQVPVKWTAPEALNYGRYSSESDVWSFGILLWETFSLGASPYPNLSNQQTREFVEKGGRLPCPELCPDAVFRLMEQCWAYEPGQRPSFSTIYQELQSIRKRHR

- SH2 binding enrichment [14]: 0.964
- SH2 binding enrichment [15]: 8.86
- SH2 binding enrichment [16]: 22.2
Sequence: LPVHFYSHVEH [PYGM_Y204_G205S]
- phosphorylation enrichment [1]: 0.859
- phosphorylation enrichment [2]: 1.63
- phosphorylation enrichment [3]: 1.05
- phosphorylation enrichment [4]: 1.26
- phosphorylation enrichment [5]: 0.689
- phosphorylation enrichment [6]: 1.29
- phosphorylation enrichment [7]: 1.71
- phosphorylation enrichment [8]: 1.2
- phosphorylation enrichment [9]: 0.651
- phosphorylation enrichment [10]: 0.878
- phosphorylation enrichment [11]: 1.13
- phosphorylation enrichment [12]: 1.21
- phosphorylation enrichment [13]: 0.852

- SH2 binding enrichment [14]: 0.709
- SH2 binding enrichment [15]: 0.7
- SH2 binding enrichment [16]: 0.582
Sequence: LQKNIYSEELR [LMNA_Y211_F206L]
- phosphorylation enrichment [1]: 4.38
- phosphorylation enrichment [2]: 1.39
- phosphorylation enrichment [3]: 1.82
- phosphorylation enrichment [4]: 0.61
- phosphorylation enrichment [5]: 1.92
- phosphorylation enrichment [6]: 1.37
- phosphorylation enrichment [7]: 0.508
- phosphorylation enrichment [8]: 0.445
- phosphorylation enrichment [9]: 1.79
- phosphorylation enrichment [10]: 1.02
- phosphorylation enrichment [11]: 1.32
- phosphorylation enrichment [12]: 0.722
- phosphorylation enrichment [13]: 1.49

- SH2 binding enrichment [14]: 0.772
- SH2 binding enrichment [15]: 0.792
- SH2 binding enrichment [16]: 0.335
Sequence: LQLLGDRPVYS [CHST6_Y358_Y358D]
- phosphorylation enrichment [1]: 0.683
- phosphorylation enrichment [2]: 3.27
- phosphorylation enrichment [3]: 2.17
- phosphorylation enrichment [4]: 1.53
- phosphorylation enrichment [5]: 1.7
- phosphorylation enrichment [6]: 1.64
- phosphorylation enrichment [7]: 2.78
- phosphorylation enrichment [8]: 1.3
- phosphorylation enrichment [9]: 1.63
- phosphorylation enrichment [10]: 2.16
- phosphorylation enrichment [11]: 1.88
- phosphorylation enrichment [12]: 1.35
- phosphorylation enrichment [13]: 1.37

- SH2 binding enrichment [14]: 1.1
- SH2 binding enrichment [15]: 0.823
- SH2 binding enrichment [16]: 0.796
Sequence: LRLSSYSTTIR [CYP7B1_Y365]
- phosphorylation enrichment [1]: 0.686
- phosphorylation enrichment [2]: 1.1
- phosphorylation enrichment [3]: 0.674
- phosphorylation enrichment [4]: 0.524
- phosphorylation enrichment [5]: 0.687
- phosphorylation enrichment [6]: 0.756
- phosphorylation enrichment [7]: 0.936
- phosphorylation enrichment [8]: 0.676
- phosphorylation enrichment [9]: 0.655
- phosphorylation enrichment [10]: 0.708
- phosphorylation enrichment [11]: 1.41
- phosphorylation enrichment [12]: 0.658
- phosphorylation enrichment [13]: 0.615

- SH2 binding enrichment [14]: 0.86
- SH2 binding enrichment [15]: 0.858
- SH2 binding enrichment [16]: 3.56
Sequence: LRTAVYHEILI [CREBBP_Y1450]
- phosphorylation enrichment [1]: 7.48
- phosphorylation enrichment [2]: 3.73
- phosphorylation enrichment [3]: 1.97
- phosphorylation enrichment [4]: 14.4
- phosphorylation enrichment [5]: 7.22
- phosphorylation enrichment [6]: 12.1
- phosphorylation enrichment [7]: 3.67
- phosphorylation enrichment [8]: 2.77
- phosphorylation enrichment [9]: 16.7
- phosphorylation enrichment [10]: 1.85
- phosphorylation enrichment [11]: 3.59
- phosphorylation enrichment [12]: 12.5
- phosphorylation enrichment [13]: 7.29

- SH2 binding enrichment [14]: 1.03
- SH2 binding enrichment [15]: 0.868
- SH2 binding enrichment [16]: 0.956
Sequence: LSALDYKIFYY [WDPCP_Y210]
- phosphorylation enrichment [1]: 0.365
- phosphorylation enrichment [2]: 1.18
- phosphorylation enrichment [3]: 0.634
- phosphorylation enrichment [4]: 0.404
- phosphorylation enrichment [5]: 0.511
- phosphorylation enrichment [6]: 0.928
- phosphorylation enrichment [7]: 1.29
- phosphorylation enrichment [8]: 0.787
- phosphorylation enrichment [9]: 0.816
- phosphorylation enrichment [10]: 0.602
- phosphorylation enrichment [11]: 1.18
- phosphorylation enrichment [12]: 0.495
- phosphorylation enrichment [13]: 0.499

- SH2 binding enrichment [14]: 0.713
- SH2 binding enrichment [15]: 0.603
- SH2 binding enrichment [16]: 0.391
Sequence: LSEEKYELKEG [TREM1_Y29_T25S]
- phosphorylation enrichment [1]: 0.449
- phosphorylation enrichment [2]: 1.4
- phosphorylation enrichment [3]: 0.712
- phosphorylation enrichment [4]: 0.627
- phosphorylation enrichment [5]: 0.574
- phosphorylation enrichment [6]: 0.835
- phosphorylation enrichment [7]: 1.18
- phosphorylation enrichment [8]: 0.875
- phosphorylation enrichment [9]: 0.592
- phosphorylation enrichment [10]: 0.628
- phosphorylation enrichment [11]: 1.54
- phosphorylation enrichment [12]: 0.489
- phosphorylation enrichment [13]: 0.513

- SH2 binding enrichment [14]: 0.683
- SH2 binding enrichment [15]: 0.819
- SH2 binding enrichment [16]: 0.591
Sequence: LSNPAYCLLLA [DDR1_Y513_R514C]
- phosphorylation enrichment [1]: 5.79
- phosphorylation enrichment [2]: 1.63
- phosphorylation enrichment [3]: 1.05
- phosphorylation enrichment [4]: 0.973
- phosphorylation enrichment [5]: 0.605
- phosphorylation enrichment [6]: 4.44
- phosphorylation enrichment [7]: 1.49
- phosphorylation enrichment [8]: 0.912
- phosphorylation enrichment [9]: 6.78
- phosphorylation enrichment [10]: 0.844
- phosphorylation enrichment [11]: 1.5
- phosphorylation enrichment [12]: 0.699
- phosphorylation enrichment [13]: 0.855

- SH2 binding enrichment [14]: 1.12
- SH2 binding enrichment [15]: 0.78
- SH2 binding enrichment [16]: 0.645
Sequence: LSQAKYQIRFR [CRLF1_Y272_F268S_YF]
- phosphorylation enrichment [1]: 0.499
- phosphorylation enrichment [2]: 0.672
- phosphorylation enrichment [3]: 0.682
- phosphorylation enrichment [4]: 0.499
- phosphorylation enrichment [5]: 0.621
- phosphorylation enrichment [6]: 0.596
- phosphorylation enrichment [7]: 0.63
- phosphorylation enrichment [8]: 0.597
- phosphorylation enrichment [9]: 0.558
- phosphorylation enrichment [10]: 0.286
- phosphorylation enrichment [11]: 0.933
- phosphorylation enrichment [12]: 0.421
- phosphorylation enrichment [13]: 0.431

- SH2 binding enrichment [14]: 0.83
- SH2 binding enrichment [15]: 0.687
- SH2 binding enrichment [16]: 0.671
Sequence: LSQDVYEEDSF [RET_Y900_R897Q_YF]
- phosphorylation enrichment [1]: 1.26
- phosphorylation enrichment [2]: 2.43
- phosphorylation enrichment [3]: 1.19
- phosphorylation enrichment [4]: 0.978
- phosphorylation enrichment [5]: 0.882
- phosphorylation enrichment [6]: 1.44
- phosphorylation enrichment [7]: 2.56
- phosphorylation enrichment [8]: 1.58
- phosphorylation enrichment [9]: 0.991
- phosphorylation enrichment [10]: 0.962
- phosphorylation enrichment [11]: 2.12
- phosphorylation enrichment [12]: 0.852
- phosphorylation enrichment [13]: 0.945

- SH2 binding enrichment [14]: 0.89
- SH2 binding enrichment [15]: 0.609
- SH2 binding enrichment [16]: 0.479
Sequence: LSSEMYVKSYT [F5_Y2149]
- phosphorylation enrichment [1]: 0.76
- phosphorylation enrichment [2]: 1.56
- phosphorylation enrichment [3]: 1.14
- phosphorylation enrichment [4]: 0.771
- phosphorylation enrichment [5]: 1.2
- phosphorylation enrichment [6]: 1.12
- phosphorylation enrichment [7]: 1.12
- phosphorylation enrichment [8]: 0.733
- phosphorylation enrichment [9]: 1.27
- phosphorylation enrichment [10]: 2.05
- phosphorylation enrichment [11]: 1.46
- phosphorylation enrichment [12]: 0.73
- phosphorylation enrichment [13]: 0.991

- SH2 binding enrichment [14]: 0.936
- SH2 binding enrichment [15]: 0.818
- SH2 binding enrichment [16]: 0.555
Sequence: LSSETYVKSYT [F5_Y2149_M2148T]
- phosphorylation enrichment [1]: 0.513
- phosphorylation enrichment [2]: 0.902
- phosphorylation enrichment [3]: 0.553
- phosphorylation enrichment [4]: 0.738
- phosphorylation enrichment [5]: 0.726
- phosphorylation enrichment [6]: 0.582
- phosphorylation enrichment [7]: 1.37
- phosphorylation enrichment [8]: 0.908
- phosphorylation enrichment [9]: 0.606
- phosphorylation enrichment [10]: 0.74
- phosphorylation enrichment [11]: 0.946
- phosphorylation enrichment [12]: 0.668
- phosphorylation enrichment [13]: 0.529

- SH2 binding enrichment [14]: 1.12
- SH2 binding enrichment [15]: 1.12
- SH2 binding enrichment [16]: 0.888
Sequence: LSVISYDLGMF [GBA3_Y174_M172I]
- phosphorylation enrichment [1]: 0.424
- phosphorylation enrichment [2]: 1.27
- phosphorylation enrichment [3]: 0.742
- phosphorylation enrichment [4]: 0.415
- phosphorylation enrichment [5]: 0.436
- phosphorylation enrichment [6]: 0.581
- phosphorylation enrichment [7]: 1.21
- phosphorylation enrichment [8]: 0.961
- phosphorylation enrichment [9]: 0.328
- phosphorylation enrichment [10]: 0.72
- phosphorylation enrichment [11]: 1.2
- phosphorylation enrichment [12]: 0.586
- phosphorylation enrichment [13]: 0.481

- SH2 binding enrichment [14]: 0.691
- SH2 binding enrichment [15]: 1.82
- SH2 binding enrichment [16]: 2.72
Sequence: LTMAPYSSVSL [FAM81A_Y24]
- phosphorylation enrichment [1]: 0.556
- phosphorylation enrichment [2]: 0.618
- phosphorylation enrichment [3]: 0.412
- phosphorylation enrichment [4]: 6.06
- phosphorylation enrichment [5]: 0.536
- phosphorylation enrichment [6]: 0.488
- phosphorylation enrichment [7]: 0.518
- phosphorylation enrichment [8]: 0.511
- phosphorylation enrichment [9]: 0.498
- phosphorylation enrichment [10]: 0.45
- phosphorylation enrichment [11]: 0.628
- phosphorylation enrichment [12]: 0.897
- phosphorylation enrichment [13]: 0.495

- SH2 binding enrichment [14]: 0.604
- SH2 binding enrichment [15]: 0.551
- SH2 binding enrichment [16]: 0.822
Sequence: LTTPTFGDLNH [TUBB_Y222_Y222F]
- phosphorylation enrichment [1]: 0.442
- phosphorylation enrichment [2]: 0.871
- phosphorylation enrichment [3]: 0.407
- phosphorylation enrichment [4]: 1.05
- phosphorylation enrichment [5]: 0.378
- phosphorylation enrichment [6]: 0.577
- phosphorylation enrichment [7]: 0.609
- phosphorylation enrichment [8]: 0.612
- phosphorylation enrichment [9]: 0.554
- phosphorylation enrichment [10]: 0.384
- phosphorylation enrichment [11]: 0.729
- phosphorylation enrichment [12]: 0.577
- phosphorylation enrichment [13]: 0.308

- SH2 binding enrichment [14]: 1.02
- SH2 binding enrichment [15]: 0.748
- SH2 binding enrichment [16]: 0.662
Sequence: LTTPTYGDLNH [TUBB_Y222]
- phosphorylation enrichment [1]: 0.836
- phosphorylation enrichment [2]: 1.47
- phosphorylation enrichment [3]: 1.14
- phosphorylation enrichment [4]: 1.07
- phosphorylation enrichment [5]: 5.58
- phosphorylation enrichment [6]: 1.11
- phosphorylation enrichment [7]: 0.84
- phosphorylation enrichment [8]: 0.702
- phosphorylation enrichment [9]: 1.03
- phosphorylation enrichment [10]: 1.44
- phosphorylation enrichment [11]: 1.41
- phosphorylation enrichment [12]: 3.12
- phosphorylation enrichment [13]: 4.7
